Assay results reported in PMC10127577 (Journal of Bacteriology, 2023).

B1: BINTOXB/22 Fab (Fab, V domains shown)
VH: QIQLVQSGPELKKPGETVKISCKASGYTFTNYGMNWVKQAPGKDLKWMGWMSTYTGEPTYADDFKGRFAFSLETSASTAYLQINNLKNEDMATYFCARRGNYLSFDYWGQGTTLTVSS
VL: DIVMTQSHKFMSTSVGDRVSITCKASQDVSTAVGWYQQKPGQSPKLLIYSASYRYTGVPDRFTGSGSGTDFTFTISSVQAEDLAVYYCQQHYSPPFTFGSGTELEIK
B2: BINTOXB/9 Fab (Fab, V domains shown)
VH: QVQLQQSGAELARPGASVKMSCKASGYTFTSYTMHWVKQRPGQGLEWIGYINPSNDYTSYNQKFKDKATLTADKSSSTAYMQLSSLTSEDSAVYYCARCWGYDPYYFDYWGQGTTLTVSS
VL: DIVMSQSPSLLAVSAGEKVTMSCKSSQSLLNSRTRKNYLAWYQQKPGQSPKVLIYWASTRESGVPDRFTGSGSGTDFTLTISSVQAEDLAVYYCKQSYNLLTFGAGTKLELK

Tests used:
[1] = target: T1, cleaved, mature CDTb (from limited trypsinization of proCDTb) (Clostridioides difficile); assay: cell-based or functional assay
T1 chain: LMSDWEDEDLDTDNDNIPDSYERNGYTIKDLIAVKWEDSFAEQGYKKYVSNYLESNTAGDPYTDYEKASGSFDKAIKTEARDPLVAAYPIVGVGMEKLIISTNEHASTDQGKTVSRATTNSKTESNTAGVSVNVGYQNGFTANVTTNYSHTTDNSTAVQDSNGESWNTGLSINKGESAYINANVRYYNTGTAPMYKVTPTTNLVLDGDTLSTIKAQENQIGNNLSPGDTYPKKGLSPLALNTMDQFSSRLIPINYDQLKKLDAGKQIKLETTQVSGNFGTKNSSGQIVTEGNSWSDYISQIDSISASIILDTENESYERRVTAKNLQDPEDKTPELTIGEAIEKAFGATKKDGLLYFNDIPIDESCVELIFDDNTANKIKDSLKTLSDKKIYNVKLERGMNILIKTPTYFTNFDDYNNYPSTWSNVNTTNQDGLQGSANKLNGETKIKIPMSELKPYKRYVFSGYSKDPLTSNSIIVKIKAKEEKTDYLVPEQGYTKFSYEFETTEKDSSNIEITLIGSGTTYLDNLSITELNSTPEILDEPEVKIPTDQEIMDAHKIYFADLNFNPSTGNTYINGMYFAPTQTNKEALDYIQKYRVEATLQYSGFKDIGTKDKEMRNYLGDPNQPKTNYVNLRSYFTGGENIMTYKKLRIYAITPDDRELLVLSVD

[2] = target: T2, CDTb D4 fragment, CDTb residues 753 to 876 (Clostridioides difficile, UniProt O32739); assay: BLI; conditions: both partners purified
T2 construct: pET22b construct; source: E. coli BL21(DE3), purified (Ni-NTA, SEC); not shown: His6, C-terminal, kept

[3] = target: T3, CDTb protoxin (proCDTb), CDTb residues 43 to 876 (Clostridioides difficile, UniProt O32739); assay: SPR; proCDTb with C-terminal 6xHis immobilised (~200 RU) on NTA chip, Biacore X100; Fab flowed at 0.1-25 nM; 10 mM HEPES pH 8.0, 150 mM NaCl, 6 mM CaCl2, 0.05% Tween 20; association 180 s, dissociation 600 s; 1:1 binding model; conditions: both partners purified
T3 construct: pET24b construct for biophysical and structural studies; A different construct (pGEX-6p1, GST cleaved, C-terminal 6xHis) was used for immunisation and the neutralisation assay; also called proCTDb; source: E. coli BL21(DE3), purified (Ni-NTA, anion exchange, SEC); not shown: His6, C-terminal, kept

[4] = target: T2, CDTb D4 fragment, CDTb residues 753 to …; assay: crystal structure; conditions: both partners purified

Binder	EC50 of protection of HT29 cells from CDT (CDTa 25 ng/mL + cleaved, monomeric CDTb 75 ng/mL) cytotoxicity, Hoechst-stained surface, BINTOXB/22 IgG; blocks CDTb oligomerization (m7 with m7) [1]	binding result [2]	Kd [3]	EC50 of protection of HT29 cells from CDT (CDTa 25 ng/mL + cleaved, monomeric CDTb 75 ng/mL) cytotoxicity, Hoechst-stained surface, BINTOXB/9 IgG; blocks CDTb oligomerization (m7 with m7) [1]	binding result [4]
B1	21 µg/mL	no binding (tested: 200 nM)	16.3 nM	–	–
B2	–	–	0.73 nM	13 µg/mL	binds
